Experiment [1] concerns the target T1, SGIP1 μHD (residues 552 to 828) (Homo sapiens, UniProt Q9BQI5).
T1 construct: the SGIP1 μHD (residues 552 to 828); GST (N, cleaved yes); made in house; host or cells: Escherichia coli BL21-Gold (DE3) or Rosetta2
T1 sequence (Q9BQI5 552-828): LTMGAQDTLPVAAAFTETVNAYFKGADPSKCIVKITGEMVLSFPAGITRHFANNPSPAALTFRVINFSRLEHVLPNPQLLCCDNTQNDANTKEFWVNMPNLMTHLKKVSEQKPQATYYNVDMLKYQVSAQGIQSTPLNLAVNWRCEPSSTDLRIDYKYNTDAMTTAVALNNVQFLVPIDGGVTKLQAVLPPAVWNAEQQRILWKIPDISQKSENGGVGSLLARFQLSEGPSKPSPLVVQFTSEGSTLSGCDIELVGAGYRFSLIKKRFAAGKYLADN
The experiment is described as follows: ITC of Eps15 fragments with the SGIP1 μHD. It is filed as binding. The following applies: for Kd: 50 mM Tris-HCl pH 8.0, 50 mM NaCl, global fit of two runs. The method, then:
(§1) For the majority of the ITC experiments, the SGIP1 μHD, its mutants, or the FCHo1 μHD, in 50 mM Tris-HCl buffer (pH 8.0) containing 50 mM NaCl, was loaded in the sample cell, in a volume of 1.42 ml, and titrated with various Eps15-derived fragments or peptides in the same buffer, with an initial 5 μl injection and subsequent 10 μl injections, for a total of 25 injections. The titrations were performed while the samples were stirred at 310 r.p.m. at 25 °C. Each injection was followed by an interval of 4 min, to allow baseline stabilization. For the other ITC experiments indicated in Supplementary Table 2, the Eps15-derived fragments or peptides in the sample cell were titrated with the SGIP1 or FCHo1 μHD. All ITC experiments were performed on a VP-ITC microcalorimeter (MicroCal, LLC) and repeated twice, and the data were processed with the program NITPIC[42]. The two data sets from each ITC experiment were analyzed by global weighted least-squares fitting with the program SEDPHAT[43]. Figures for the ITC data were created with the program GUSSI (http://biophysics.swmed.edu/MBR/software.html). To obtain the values of the traditional stoichiometric parameter N in our ITC data analyses (Supplementary Table 2), we used the values of the parameters of the incompetent fractions of proteins and ligands. […] The values of the incompetent fractions are between 0 and 1, whereas the other parameter affecting the traditional parameter N, the number of sites, was fixed as 1 and 2, for the single- and two-site models, respectively. Thus, in the two-site model, the values of N for the first and second sites are identical in our ITC data analyses (Supplementary Table 2).

Experiment [2] deals with T2, FCHo1 µHD (residues 623 to 889) (Homo sapiens, UniProt O14526).
T2 construct: GST (N, cleaved yes); made in house; host or cells: Escherichia coli (as for the SGIP1 μHD)
T2 sequence (O14526 623-889): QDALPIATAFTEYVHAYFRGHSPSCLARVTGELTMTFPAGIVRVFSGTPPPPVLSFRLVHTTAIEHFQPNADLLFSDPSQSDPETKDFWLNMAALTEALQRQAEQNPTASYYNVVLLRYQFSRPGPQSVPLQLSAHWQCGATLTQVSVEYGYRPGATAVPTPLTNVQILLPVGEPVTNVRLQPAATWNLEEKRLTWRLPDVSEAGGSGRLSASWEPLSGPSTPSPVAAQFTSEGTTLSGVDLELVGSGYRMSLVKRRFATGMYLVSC
In words: ITC of Eps15 fragments with the FCHo1 μHD. It is filed as binding. To be noted: for Kd / -TΔS / ΔG / ΔH: 25 °C; for Kd: 50 mM Tris-HCl pH 8.0, 50 mM NaCl, global fit of two runs; for Kd / -TΔS / ΔG / ΔH / N (binding ratio of Eps15 fragment to FCHo1 μHD): single-site model; for Kd / ΔH / N (binding ratio of Eps15 fragment to FCHo1 μHD): ± 68.3% confidence interval. The method, then: as §1

The target of experiment [3] is α-adaptin appendage domain (residues 711 to 955). In words: ITC of Eps15 fragments with the α-adaptin appendage domain. The format is binding, human.
Experiment [4] addresses appendage domain of human α-adaptin, residues 711 to 955 (human) (UniProt O95782). In words: ITC; µHD, µHD mutant or α-adaptin appendage domain in the sample cell, titrated with the Eps15 fragment or peptide; 50 mM Tris-HCl (pH 8.0), 50 mM NaCl, 25 °C; VP-ITC; two data sets fitted globally (NITPIC, SEDPHAT); single-site model. For orientation: In ITC the heat of successive injections is recorded.

For experiment [5], the target named is T3, SGIP1 µ homology domain (µHD), residues 552 to 828 (human, UniProt Q9BQI5-1 552-828).
T3 construct: pGEX-6P-1 construct cut with 3C protease; also called SGIP1 µHD; human SGIP1 µHD (aa552–828); source: E. coli BL21-Gold (DE3) or Rosetta2, purified (Glutathione Sepharose 4B, 3C protease cleavage, Superdex 200)
T3 sequence (looked up): T1 sequence (Q9BQI5 552-828)
The experiment is described as above. To be noted: both partners purified.

Setting [6] is: 25 °C, fragment in cell titrated with μHD, single-site model.
Setting [7] is: 25 °C, fragment in cell titrated with μHD, two-site model, first site.
Setting [8] is: 25 °C, fragment in cell titrated with μHD, two-site model, second site.
The mark [9] stands for this setting: FCHo1 μHD in cell titrated with fragment.
Where [10] appears, read: fragment in cell titrated with μHD (Experiment 37a).

Read-outs that look alike come from different tables or passages of the source. Where no end group is shown, it is not given here. GST = glutathione S-transferase fusion tag

Usually Kd stands for the concentration at which binding is half-saturated. As for “Eps15-618–654: Eps15 fragment, 37-residue region containing six consecutive DPF motifs; high-affinity binding site (DFFQSDPFVGSDPFKDDPFGKIDPFGGDPFKGSDPFA; UniProt P42566 618-654, looked up, fragment)”, the Kd in experiment [1] (25 °C, Eps15 fragment in cell titrated with SGIP1 μHD, two-site model, second site, 68.3% confidence interval, read-out: Kd, second site) was 55.5 µM; in experiment [1] (25 °C, Eps15 fragment in sample cell titrated with SGIP1 μHD, single-site model, ± 68.3% confidence interval, read-out: Kd) it was 0.42 ± 0.25 µM; in experiment [2] (Eps15 fragment in cell titrated with μHD (Experiment 37a)) it was 0.19 ± 0.09 µM; in experiment [2] (setting [9]), 0.27 ± 0.1 µM. For the same molecule, the “-TΔS” value was 0.278 kcal/mol in experiment [1] (setting [6]), -2.345 kcal/mol in experiment [1] (setting [7]), 0.672 kcal/mol in experiment [2] (setting [9]) and -1.572 kcal/mol in experiment [2] (setting [10]). Besides, the ΔG in experiment [1] (setting [6]) is -8.704 kcal/mol; in experiment [1] (setting [7]), -9.805 kcal/mol; in experiment [2] (setting [9]) it was -8.966 kcal/mol; in experiment [2] (setting [10]), -9.158 kcal/mol. In addition, the ΔH in experiment [1] (25 °C, fragment in cell titrated with μHD, single-site model, ± 68.3% confidence interval) is -8.982 ± 0.639 kcal/mol; in experiment [1] (25 °C, fragment in cell titrated with μHD, two-site model, first site, ± 68.3% confidence interval), -7.46 ± 0.168 kcal/mol; in experiment [2] (setting [9]), -9.638 ± 0.381 kcal/mol; in experiment [2] (setting [10]), -7.586 ± 0.398 kcal/mol. Besides, the “-TΔS, second site” value in experiment [1] (setting [8]) was 3.722 kcal/mol. In experiment [1] (setting [8]), the “ΔG, second site” value was -5.906 kcal/mol. Also, the “ΔH, second site” value in experiment [1] (25 °C, fragment in cell titrated with μHD, two-site model, second site, 68.3% confidence interval) was -9628 (< -6103) cal/mol. The “N (binding ratio of Eps15 fragment to μHD)” value was found to be 0.81 ± 0.04 in experiment [1] (fragment in cell titrated with μHD, single-site model, ± 68.3% confidence interval) and 0.88 ± 0.02 in experiment [1] (fragment in cell titrated with μHD, two-site model, first site (N identical for both sites), ± 68.3% confidence interval). Further, the “N, second site” value in experiment [1] (fragment in cell titrated with μHD, two-site model, second site (N identical for both sites), ± 68.3% confidence interval) was determined as 0.88 ± 0.02. Also, the Strength of affinity result is on record as “high” in experiment [1] (human SGIP1 µHD (aa552–828), Supplementary Table 3, This study) and “high” in experiment [2] (human FCHo1 µHD (aa623–889), Supplementary Table 3, This study). Further, the “Kd for the FCHo1 μHD (in words)” value in experiment [2] is “in the nanomolar range”. The entries for the “N (binding ratio of Eps15 fragment to FCHo1 μHD)” value in experiment [2] (setting [9]) and in experiment [2] (setting [10]) were 0.59 ± 0.02 and 0.70 ± 0.03, respectively.
On to “Eps15-661–720: Eps15 fragment spanning residues 661 to 720, 4 DPF motifs (QSTDPFATSSTDPFSAANNSSITSVETLKHNDPFAPGGTVVAASDSATDPFASVFGNESF; UniProt P42566 661-720, looked up, fragment)”, for which the “Kd for the α-adaptin appendage domain (in words)” value in experiment [3] is on record as “in the nanomolar range”. The molecule also showed a Kd in experiment [3] (25 °C, appendage domain titrated with Eps15 fragment, single-site model, global fit of two runs, ± 68.3% confidence interval) of 0.27 ± 0.13 µM. Also, in experiment [3] (25 °C, single-site model), the “-TΔS” value was 5.961 kcal/mol and the ΔG was -8.97 kcal/mol. Besides, in experiment [3] (25 °C, single-site model, ± 68.3% confidence interval), the ΔH was -14.931 ± 1.892 kcal/mol.

B1: Eps15-661–720 (domain or fragment)
chain: GPLGSYQSTDPFATSSTDPFSAANNSSITSVETLKHNDPFAPGGTVVAASDSATDPFASVFGNESF
A word on the stoichiometry N: it is the number of molecules, sites or subunits per partner or assembly. Regarding B1, in experiment [4], the Kd amounted to 0.27 µM and the stoichiometry N was 0.47.

B2: Eps15-661–790 (domain or fragment)
chain: GPLGSYQSTDPFATSSTDPFSAANNSSITSVETLKHNDPFAPGGTVVAASDSATDPFASVFGNESFGGGFADFSTLSKVNNEDPFRSATSSSVSNVVITKNVFEETSVKSEDEPPALPPKIGTPTRPCPLPPGKRSW
As for B2, in experiment [4], the Kd worked out at 0.69 µM and the stoichiometry N came to 1.19.

B3: GST-Eps15-628–654 (domain or fragment, human)
chain: {GST}-SDPFKDDPFGKIDPFGGDPFKGSDPFA
notes: source: E. coli, purified (Glutathione Sepharose 4B, glutathione elution, Superdex 200); not shown: GST, N-terminal, kept
In the case of B3, in experiment [5], the Kd was 1 µM and the “stoichiometry N” value worked out at 0.86.

B4: GST-Eps15-628–644 (domain or fragment, human)
chain: {GST}-SDPFKDDPFGKIDPFGG
notes: as for B3
With B4, in experiment [5], binding was characterised by a dissociation constant (Kd) of 0.65 µM and the “stoichiometry N” value turned out to be 0.92.

B5: Eps15-622–637 (peptide)
peptide: Ac-YSDPFVGSDPFKDDPFG-NH2
notes: artificial N-terminal Tyr; source: synthetic peptide (Eurofins Genomics)
With B5, in experiment [5], the Kd is 4.9 µM and the “stoichiometry N” value worked out at 0.85.

B6: Eps15-640–649 (peptide)
peptide: Ac-YDPFGGDPFKG-NH2
notes: extra (artificial) N-terminal Tyr residue, to facilitate the concentration determination by absorbance; source: synthetic peptide (Eurofins Genomics)
On to B6, for which, in experiment [5], the dissociation constant (Kd) was 30.2 µM and the “stoichiometry N” value came out at 0.66.

B7: Eps15-640–649D640E (peptide)
peptide: Ac-YEPFGGDPFKG-NH2
notes: as for B5
In turn, B7 yielded a Kd in experiment [5] of 325 µM.

B8: Eps15-640–649D640N (peptide)
peptide: Ac-YNPFGGDPFKG-NH2
notes: as for B5
Consider B8, for which the Kd in experiment [5] came out at 103 µM.

B9: Eps15-640–649F642W (peptide)
peptide: Ac-YDPWGGDPFKG-NH2
notes: as for B5
As to B9, the Kd in experiment [5] stood at 229 µM.

B10: Eps15-640–649D645N (peptide)
peptide: Ac-YDPFGGNPFKG-NH2
notes: as for B5
B10 registered a Kd in experiment [5] of 73.1 µM.

B11: Eps15-645–654 (peptide)
peptide: Ac-YDPFKGSDPFA-NH2
notes: as for B6
As for B11, in experiment [5], the Kd was found to be 22.4 µM and the “stoichiometry N” value amounted to 0.75.

B12: Eps15-662–676 (peptide)
peptide: Ac-YSTDPFATSSTDPFSA-NH2
notes: as for B5
As to B12, in experiment [5], the dissociation constant Kd stood at 125 µM.

B13: Eps15-628–654 (peptide)
peptide: Ac-YSDPFKDDPFGKIDPFGGDPFKGSDPFA-NH2
notes: as for B5
As to B13, the “stoichiometry N” value in experiment [5] came out at 0.67.
